Results as given in PMC10438392 (Proceedings of the National Academy of Sciences of the …, 2023).

Experiments:
[1] = target: T1, PurTCp (PurT of Colwellia psychrerythraea) (Colwellia psychrerythraea, UniProt Q484N1); assay: SPA competition with 3H-xanthine or 3H-guanine; type: binding; conditions: 0.5 µM 3H-xanthine or 3H-guanine; pH 8.0
T1 sequence (Q484N1 1-482): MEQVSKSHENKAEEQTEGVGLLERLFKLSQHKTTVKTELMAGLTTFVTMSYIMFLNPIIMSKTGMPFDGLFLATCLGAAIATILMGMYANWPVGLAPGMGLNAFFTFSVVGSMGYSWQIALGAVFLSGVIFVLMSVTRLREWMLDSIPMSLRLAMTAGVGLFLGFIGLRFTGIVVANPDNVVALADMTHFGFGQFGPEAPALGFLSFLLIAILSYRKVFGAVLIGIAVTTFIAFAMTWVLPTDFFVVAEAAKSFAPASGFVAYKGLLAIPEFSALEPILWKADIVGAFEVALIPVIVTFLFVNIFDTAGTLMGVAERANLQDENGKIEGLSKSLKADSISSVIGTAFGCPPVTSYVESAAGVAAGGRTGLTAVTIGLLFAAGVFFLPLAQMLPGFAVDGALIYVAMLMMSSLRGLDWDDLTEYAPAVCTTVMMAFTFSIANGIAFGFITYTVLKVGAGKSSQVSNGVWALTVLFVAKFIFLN

[2] = target: PurT of Colwellia psychrerythraea (PurTCp) (Colwellia psychrerythraea 34H); assay: cross-linking
[3] = target: PurT of Colwellia psychrerythraea (PurTCp) (Colwellia psychrerythraea 34H); assay: SEC

Compound | % inhibition at 250 μM [1] | stoichiometry N [2] | stoichiometry N [3]
c1ncc2[nH]cnc2n1 [purine] | 2-amino-6-bromopurine, 6-bromopurine, 6-thioguanine, allopurinol, isoguanine, and purine |  | 
PurT of Colwellia psychrerythraea (PurTCp) (natural protein) |  | 2 | 2
